Data published in patent publication US20140057332A1, “GLUCO-OLIGOSACCHARIDE OXIDASES FROM ACREMONIUM STRICTUM AND USES THEREOF” (The Governing Council of the University of Toronto, priority 2011, published 2014).
Positions count from the first letter of the chain named. Names and notes keep the numbering of the source.

B1: Acremonium strictum gluco-oligosaccharide oxidase GOOX-VN variant 1 Y300A, SEQ ID NO. 6 (Sarocladium strictum; A38V/S388N/Y300A) (protein)
chain: NSINACLAAADVEFHEEDSEGWEMDGTAFNLRVDYDPVAIAIPRSTEDIAAAVQCGLDAGVQISAKGGGHSYGSYGFGGEDGHLMLELDRMYRVSVDDDNVATIQGGARLGYTALELLDQGNRALTHGTCPAVGIGGHVLGGGYGFATHTHGLTLDWLVGATVVLADASIVHVSKTENADLFWALRGGGGGFAIVSEFEFNTFEAPEIITTYQVTTTWNRKQHVAGLKALQDWAENTMPRELSMRLEINANALNWEGNYFGNAKDLKKVLQPIMKKAGGKSTISKLVETDWYGQINTYLAGADLNITYNYDVHEYFYANSLTAPRLSDEAISAFVDYKFDNSSVRPGRGWWIQWDFHGGKNSALASHSNDETAYAHRDQLWLWQFYDNIYDYENNTSPYPESGFEFMQGFVATIEDTLPEDRKGKYFNYADTTLDKEEAQKLYWRGNLEKLQAIKAKYDPEDVFGNVVSVEPIA
B2: Acremonium strictum gluco-oligosaccharide oxidase GOOX-VN variant 2 Y300N, SEQ ID NO. 7 (Sarocladium strictum; A38V/S388N/Y300N) (protein)
chain: B1 chain with A300N

What was measured:
[1] = Chromogenic H2O2 oxidase assay / kinetic analysis on xylobiose; details: for Specific activity Defined substrate concentration: 1 mM xylobiose, 37° C., 15 min; for Specific activity From Vmax: substrate xylobiose
Description: (§1) A chromogenic assay was used to measure hydrogen peroxide production (15). Reactions contained 0.1 mM 4aminoantipyrine (4AA), 1 mM phenol, 0.5 U horseradish peroxidase, 40 mM Tris-HCl (pH 8.0), and different substrates were initiated by adding 0.2 μg of enzymes to the 250 μL reaction mixture. The production of H2O2 was coupled to the oxidation of 4aminoantipyrine by horseradish peroxidase and detected at 500 nm. Reactions were incubated at 37° C. for 15 min to measure the specific activity of GOOX on 10 mM of monosaccharide or 1 mM of oligosaccharide.
(§2) At least 12 substrate concentrations were included to obtain kinetic parameters for each substrate. Initial rates were obtained by measuring reaction products every 30 s for 15 min at 37° C. and pH 8.0, and kinetic parameters were calculated using the Michaelis-Menten equation (GraphPad Prism5 Software).

[2] = Effect of deglycosylation with PNGaseF on enzyme activity; assay type: biochemical; details: 10 mM maltose, 15 min at 37° C., duplicate; for Activity, Deglycosylated: deglycosylated with PNGaseF (native conditions); for Activity, Glycosylated: glycosylated enzyme
Description: Approximately 2 μg of purified enzyme was treated with PNGaseF (New England Biolabs) using denaturing and native conditions. Samples that were deglycosylated using denaturing conditions were analysed by SDS PAGE, while samples deglycosylated using native conditions were used to evaluate the impact of glycosylation on enzyme activity. The activity of enzymes was measured on 10 mM maltose at 37° C. for 15 min. (Table 7). N-glycosylation was predicted by NetNGlyc (http://www.cbs.dtu.dk/services/NetNGlyc/) while O-glycosylation was predicted by OGPET (http://ogpet.utep.edu/OGPET/).

[3] = Chromogenic H2O2 oxidase assay / kinetic analysis on NAG; details: for Specific activity Defined substrate concentration: 10 mM NAG, 37° C., 15 min; for Specific activity From Vmax: substrate NAG
Description: as §1, §2

[4] = substrate: CC(=O)N[C@H]1C(O)O[C@H](CO)[C@@H](O)[C@@H]1O; assay: purified protein, by the assay type; details: other: 37° C., pH 8.0
Description: as §1, §2

[5] = substrate: OC[C@H]1OC(O)[C@H](O)[C@@H](O)[C@@H]1O; assay: purified protein, by the assay type; details: other: 37° C., pH 8.0
Description: as §1, §2

[6] = substrate: OC[C@H]1O[C@@H](O[C@H]2[C@H](O)[C@@H](O)C(O)O[C@@H]2CO)[C@H](O)[C@@H](O)[C@@H]1O; assay: purified protein, by the assay type; details: other: 37° C., pH 8.0
Description: as §1, §2

[7] = substrate: OC1OC[C@@H](O[C@@H]2OC[C@@H](O[C@@H]3OC[C@@H](O)[C@H](O)[C@H]3O)[C@H](O)[C@H]2O)[C@H](O)[C@H]1O; assay: purified protein, by the assay type; details: other: 37° C., pH 8.0
Description: as §1, §2

[8] = substrate: OC[C@H]1O[C@H](O[C@H]2[C@H](O)[C@@H](O)C(O)O[C@@H]2CO)[C@H](O)[C@@H](O)[C@@H]1O; assay: purified protein, by the assay type; details: other: 37° C., pH 8.0
Description: as §1, §2

[9] = substrate: OC1OC[C@@H](O)[C@H](O)[C@H]1O; assay: purified protein, by the assay type; details: other: 37° C., pH 8.0
Description: as §1, §2

[10] = substrate: OC1OC[C@@H](O[C@@H]2OC[C@@H](O)[C@H](O)[C@H]2O)[C@H](O)[C@H]1O; assay: purified protein, by the assay type; details: other: 37° C., pH 8.0
Description: as §1, §2

[11] = substrate: OC[C@H]1O[C@@H](O[C@H]2[C@H](O)[C@@H](O)[C@H](O[C@H]3[C@H](O)[C@@H](O)C(O)O[C@@H]3CO)O[C@@H]2CO)[C@H](O)[C@@H](O)[C@@H]1O; assay: purified protein, by the assay type; details: other: 37° C., pH 8.0
Description: as §1, §2

[12] = substrate: OC[C@H]1OC(O)[C@H](O)[C@@H](O)[C@H]1O; assay: purified protein, by the assay type; details: other: 37° C., pH 8.0
Description: as §1, §2

[13] = Chromogenic H2O2 oxidase assay / kinetic analysis on galactose; details: for Specific activity Defined substrate concentration: 10 mM galactose, 37° C., 15 min; for Specific activity From Vmax: substrate galactose
Description: as §1, §2

[14] = Chromogenic H2O2 oxidase assay / kinetic analysis on glucose; details: for Specific activity Defined substrate concentration: 10 mM glucose, 37° C., 15 min; for Specific activity From Vmax: substrate glucose
Description: as §1, §2

[15] = Chromogenic H2O2 oxidase assay on mannose; details: for Specific activity Defined substrate concentration: 10 mM mannose, 37° C., 15 min
Description: as §1
An additional eight mutations, identified as Y72F, Y72A, E247A, E314A, W351A, N388S, Q353N, Q384A, were created in GOOX-VN to assess the influence of these residues on the substrate selectivity of GOOX-VN. […] The specific activity of each mutant was then measured at 37° C. for 15 min using 10 mM mono-sugars and 1 mM oligosaccharides as performed for Y300A, Y300N, and W351F (Table 11).

[16] = Chromogenic H2O2 oxidase assay / kinetic analysis on maltose; details: for Specific activity Defined substrate concentration: 1 mM maltose, 37° C., 15 min; for Specific activity From Vmax: substrate maltose
Description: as §1, §2

[17] = Kinetic analyses, all tested substrates; assay type: biochemical; details: all tested monosaccharides and oligosaccharides
Description: as §1, §2

[18] = Chromogenic H2O2 oxidase assay / kinetic analysis on xylotriose; details: for Specific activity Defined substrate concentration: 1 mM xylotriose, 37° C., 15 min; for Specific activity From Vmax: substrate xylotriose
Description: as §1, §2

[19] = Chromogenic H2O2 oxidase assay / kinetic analysis on xylose; details: for Specific activity Defined substrate concentration: 10 mM xylose, 37° C., 15 min; for Specific activity From Vmax: substrate xylose
Description: as §1, §2

[20] = Chromogenic H2O2 oxidase assay / kinetic analysis on cellotriose; details: for Specific activity Defined substrate concentration: 1 mM cellotriose, 37° C., 15 min; for Specific activity From Vmax: substrate cellotriose
[21] = Chromogenic H2O2 oxidase assay / kinetic analysis on cellobiose; details: for Specific activity Defined substrate concentration: 1 mM cellobiose, 37° C., 15 min; for Specific activity From Vmax: substrate cellobiose
Description: as §1, §2

| Molecule | Specific activity Defined substrate concentration [1] [µmol/mg/min] | Specific activity From Vmax [1] [µmol/mg/min] | Activity, Deglycosylated [2] [nmol/min] | Activity, Glycosylated [2] [nmol/min] | Specific activity Defined substrate concentration [3] [µmol/mg/min] | Specific activity From Vmax [3] [µmol/mg/min] | Km [4] [mM] | Km [5] [mM] | Km [6] [mM] | Km [7] [mM] | Km [8] [mM] | kcat [8] [s⁻¹] | kcat/Km [8] [M⁻¹ s⁻¹] | Km [9] [mM] | Km [10] [mM] | Km [11] [mM] | Specific activity Defined substrate concentration [13] [µmol/mg/min] | Specific activity From Vmax [13] [µmol/mg/min] | Specific activity Defined substrate concentration [14] [µmol/mg/min] | Specific activity From Vmax [14] [µmol/mg/min] | also measured |
| --- | --- | --- | --- | --- | --- | --- | --- | --- | --- | --- | --- | --- | --- | --- | --- | --- | --- | --- | --- | --- | --- |
| B1 | 2.10 | 13.16 | 3.9 | 4.09 | 1.1 | 12.67 | 92.4 ± 4.65 | 8.11 ± 0.40 | 0.24 ± 0.02 | 3.15 ± 0.11 | 11.00 ± 0.53 | 10.4 ± 0.123 | 947 ± 46.7 | 51.84 ± 1.90 | 5.11 ± 0.15 | 0.25 ± 0.02 | 1.15 | 13.17 | 7.15 | 13.09 | kcat [4]: 12.8 ± 0.223 s⁻¹; kcat/Km [4]: 138 ± 6.67 M⁻¹ s⁻¹; Km [12]: 96.39 ± 5.15 mM; activity on mannose (in words) [15]: low activity; Specific activity Defined substrate concentration [15]: 0.11 µmol/mg/min; Specific activity Defined substrate concentration [16]: 0.85 µmol/mg/min; Specific activity From Vmax [16]: 10.31 µmol/mg/min; catalytic activity (kcat) relative to GOOX-VN [17]: approximately two times higher; Specific activity Defined substrate concentration [18]: 3.22 µmol/mg/min; Specific activity From Vmax [18]: 13.73 µmol/mg/min; Specific activity Defined substrate concentration [19]: 1.57 µmol/mg/min; Specific activity From Vmax [19]: 11.22 µmol/mg/min; Specific activity Defined substrate concentration [20]: 9.03 µmol/mg/min; Specific activity From Vmax [20]: 11.00 µmol/mg/min; Specific activity Defined substrate concentration [21]: 10.72 µmol/mg/min; Specific activity From Vmax [21]: 13.58 µmol/mg/min |
| B2 | 1.83 | 11.84 | 2.78 | 2.6 | 1.5 | 11.22 | 55.95 ± 1.93 | 3.11 ± 0.12 | 0.38 ± 0.02 | 4.32 ± 0.25 | 19.61 ± 0.66 | 10.4 ± 0.105 | 530 ± 18.3 | 32.01 ± 1.67 | 4.83 ± 0.17 | 0.44 ± 0.01 | 0.95 | 11.64 | 8.32 | 10.70 | activity on mannose (in words) [15]: low activity; Specific activity Defined substrate concentration [15]: 0.19 µmol/mg/min; Specific activity Defined substrate concentration [16]: 0.49 µmol/mg/min; Specific activity From Vmax [16]: 10.30 µmol/mg/min; catalytic activity (kcat) relative to GOOX-VN [17]: approximately two times higher; Specific activity Defined substrate concentration [18]: 2.00 µmol/mg/min; Specific activity From Vmax [18]: 11.85 µmol/mg/min; Specific activity Defined substrate concentration [19]: 2.32 µmol/mg/min; Specific activity From Vmax [19]: 11.48 µmol/mg/min; Specific activity Defined substrate concentration [20]: 6.90 µmol/mg/min; Specific activity From Vmax [20]: 9.88 µmol/mg/min; Specific activity Defined substrate concentration [21]: 8.15 µmol/mg/min; Specific activity From Vmax [21]: 11.29 µmol/mg/min |
